Results reported in patent publication US20130244255A1 (published 2013).

Key:
[1] = target: T1, GPNMB (CG56972) as expressed by human cell lines (human, UniProt Q14956 23-492); assay: FACS on ML-2 cells, antibody 1 ug/mL
T1 construct: Endogenous or transfected full-length protein on cells (FACS, killing assays) or in cell lysates (immunoprecipitation, blot); also called native GPNMB protein
T1 sequence: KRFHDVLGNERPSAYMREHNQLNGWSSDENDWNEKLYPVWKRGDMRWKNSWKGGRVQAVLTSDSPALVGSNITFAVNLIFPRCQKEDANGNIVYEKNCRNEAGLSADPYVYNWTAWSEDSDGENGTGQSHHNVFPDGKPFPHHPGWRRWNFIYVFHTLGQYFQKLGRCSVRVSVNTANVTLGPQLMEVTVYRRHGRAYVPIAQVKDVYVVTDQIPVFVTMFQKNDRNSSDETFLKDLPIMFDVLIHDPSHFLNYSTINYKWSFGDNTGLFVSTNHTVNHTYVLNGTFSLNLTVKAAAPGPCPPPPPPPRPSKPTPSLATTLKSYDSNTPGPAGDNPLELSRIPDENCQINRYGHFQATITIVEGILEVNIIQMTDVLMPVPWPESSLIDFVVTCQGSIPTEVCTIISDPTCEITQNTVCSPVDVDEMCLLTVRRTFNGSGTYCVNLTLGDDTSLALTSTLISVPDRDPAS
Experimental: (§1) Lymphoma or leukemia derived cells were washed twice with ice-cold FACS buffer and resuspended at 1 million cells per assay tube. […] Cells were then washed 2-3 times and resuspended in 1 mL of ice-cold FACS buffer. R-PE-conjugated goat anti-human antibody at 1:100 dilution was added and cells were incubated on ice for 30 min. Cells were washed 3 times with 1 mL of ice-cold FACS buffer, fixed with 0.5-1 mL of 1% formaldehyde in PBS and analyzed by Flow Cytometry.

[2] = target: T1, GPNMB (CG56972) as expressed by human …; assay: FACS on D450-MG cells, CR011 10 ug/mL
Experimental: (§2) Quantitative analysis of CG56972 expression on the surface of cell lines was determined by flow cytometry (FACS). […] Cells were fixed in 1% paraformaldehyde/PBS and examined on a Becton Dickinson FACSCalibur flow cytometer. Data analysis was performed with Becton Dickinson Cell Quest software version 3.3 and the geometric mean fluorescence intensity ratio (GMR) was determined for each cell type.

[3] = target: T1, GPNMB (CG56972) as expressed by human …; assay: FACS on D392-MG cells, CR011 10 ug/mL
Experimental: as §2

[4] = target: T1, GPNMB (CG56972) as expressed by human …; assay: FACS on SK-Mel 2 cells
[5] = target: T1, GPNMB (CG56972) as expressed by human …; assay: FACS on T98G cells, CR011 10 ug/mL
Experimental: as §2

[6] = target: T1, GPNMB (CG56972) as expressed by human …; assay: FACS on SF-268 cells, CR011 10 ug/mL
Experimental: as §2
(§3) Geometric Mean ratios (GMR) were determined by flow cytometric analysis.

[7] = target: T1, GPNMB (CG56972) as expressed by human …; assay: FACS on HUT-102 cells, antibody 1 ug/mL
[8] = target: T1, GPNMB (CG56972) as expressed by human …; assay: FACS on KG-1 cells, antibody 1 ug/mL
Experimental: as §1

[9] = target: T1, GPNMB (CG56972) as expressed by human …; assay: FACS on WSU-NH2 cells, antibody 1 ug/mL
Experimental: as §1

[10] = target: T1, GPNMB (CG56972) as expressed by human …; assay: FACS on DEL cells, antibody 1 ug/mL
Experimental: as §1

[11] = target: T1, GPNMB (CG56972) as expressed by human …; assay: FACS on D534-MG cells, CR011 10 ug/mL
Experimental: as §2

[12] = target: T1, GPNMB (CG56972) as expressed by human …; assay: FACS on Jurkat cells, antibody 1 ug/mL
Experimental: as §1

[13] = target: T1, GPNMB (CG56972) as expressed by human …; assay: FACS on A2058 cells
[14] = target: T2, Recombinant human GPNMB extra-cellular domain (ECD) with a C-terminus V5-HIS tag (human, UniProt Q14956 23-492); assay: Biacore, mAb captured on protein A
T2 construct: Expressed in HEK293; also called GPNMB-V5His; GPNMB-soluble
T2 sequence: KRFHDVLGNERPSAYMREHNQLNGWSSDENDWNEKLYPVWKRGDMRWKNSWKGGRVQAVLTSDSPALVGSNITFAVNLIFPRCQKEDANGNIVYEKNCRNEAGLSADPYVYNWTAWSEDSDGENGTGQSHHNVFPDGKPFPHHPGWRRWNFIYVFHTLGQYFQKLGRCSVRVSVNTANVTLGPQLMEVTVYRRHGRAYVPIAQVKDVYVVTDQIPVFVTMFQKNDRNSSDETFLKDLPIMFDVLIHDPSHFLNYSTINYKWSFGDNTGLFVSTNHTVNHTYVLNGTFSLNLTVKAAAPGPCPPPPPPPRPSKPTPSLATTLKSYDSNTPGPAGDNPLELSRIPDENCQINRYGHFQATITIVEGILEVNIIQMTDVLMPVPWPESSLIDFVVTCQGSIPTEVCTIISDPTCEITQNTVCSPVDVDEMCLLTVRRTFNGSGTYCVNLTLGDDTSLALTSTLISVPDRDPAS
Experimental: Certain Hybridoma cell supernatants (29) were analyzed for binding to GPNMB by BiaCore® 2000 biosensor equipped with a research-grade CM5 sensor chip. A 1:25 dilution of cell supernatant was passed over a protein A surface for 5 min followed by washing the surface for 10 mins. […] GPNMB binding data for each mAb was normalized for the amount of mAb captured on each surface. Normalized, drift corrected responses were also measured. The sensorgrams were fit to a simple 1:1 kinetic model.

[15] = target: T1, GPNMB (CG56972) as expressed by human …; assay: FACS on SK-Mel 5 cells
[16] = target: T1, GPNMB (CG56972) as expressed by human …; assay: FACS on WM115 cells
[17] = target: T1, GPNMB (CG56972) as expressed by human …; assay: FACS on U-118-MG cells, CR011 10 ug/mL
Experimental: as §2, §3

[18] = target: T1, GPNMB (CG56972) as expressed by human …; assay: FACS on U-251 cells, CR011 10 ug/mL
Experimental: as §2

[19] = target: T1, GPNMB (CG56972) as expressed by human …; assay: FACS on XF-498, U-118-MG, SNB-78 and SF-539 cells
Experimental: as §2

[20] = target: T1, GPNMB (CG56972) as expressed by human …; assay: FACS on HUT-78 cells, antibody 1 ug/mL
[21] = target: T1, GPNMB (CG56972) as expressed by human …; assay: FACS on SU-DHL-4 cells, antibody 1 ug/mL
[22] = target: T1, GPNMB (CG56972) as expressed by human …; assay: FACS on SIG-M5 cells, antibody 1 ug/mL
Experimental: as §1

[23] = target: T1, GPNMB (CG56972) as expressed by human …; assay: FACS on K562 cells, antibody 1 ug/mL
Experimental: as §1

B1: CR011 mAb 1.15.1 (IgG2) (antibody)
heavy: QVQLQESGPGLVKPSQTLSLTCTVSGGSISSFNYYWSWIRHHPGKGLEWIGYIYYSGSTYSNPSLKSRVTISVDTSKNQFSLTLSSVTAADTAVYYCARGYNWNYFDYWGQGTLVTVSSASTKGPSVFPLAPCSRSTSESTAALGCLVKDYFPEPVTVSWNSGALTSGVHTFPAVLQSSGLYSLSSVVTVPSSNFGTQTYTCNVDHKPSNTKVDKTVERKCCVECPPCPAPPVAGPSVFLFPPKPKDTLMISRTPEVTCVVVDVSHEDPEVQFNWYVDGVEVHNAKTKPREEQFNSTFRVVSVLTVVHQDWLNGKEYKCKVSNKGLPAPIEKTISKTKGQPREPQVYTLPPSREEMTKNQVSLTCLVKGFYPSDIAVEWESNGQPENNYKTTPPMLDSDGSFFLYSKLTVDKSRWQQGNVFSCSVMHEALHNHYTQKSLSLSPGK
VL: not shown
notes: also called CR011.1.15.1; CR011 IgG2
Geo Mean Ratio [1]: 2.1 ratio | CR011 Fold Shift (GMR) [2]: 1.6 fold | CR011 Fold Shift (GMR) [3]: 3.1 fold | Geo Mean Ratio (relative to isotype) [4]: 16.5 ratio | CR011 Fold Shift (GMR) [5]: 1.3 fold | CR011 Fold Shift (GMR) [6]: 1.5 fold | Geo Mean Ratio [7]: 1 ratio | Geo Mean Ratio [8]: 6.9 ratio | Geo Mean Ratio [9]: 1 ratio | Geo Mean Ratio [10]: 7.9 ratio | CR011 Fold Shift (GMR) [11]: 2.3 fold | Geo Mean Ratio [12]: 14.7 ratio | Geo Mean Ratio (relative to isotype) [13]: 4.1 ratio | Kd [14]: 52 nM | koff [14]: 0.000855 s⁻¹ | kon [14]: 16500 M⁻¹ s⁻¹ | Geo Mean Ratio (relative to isotype) [15]: 5.7 ratio | Geo Mean Ratio (relative to isotype) [16]: 1.3 ratio | CR011 Fold Shift (GMR) [17]: 7.4 fold | CR011 Fold Shift (GMR) [18]: 1.9 fold | surface staining, fold above isotype control mAb background [19]: ≥ 1.5 fold | Geo Mean Ratio [20]: 1.5 ratio | Geo Mean Ratio [21]: 1.8 ratio | Geo Mean Ratio [22]: 2.9 ratio | Geo Mean Ratio [23]: 2.8 ratio
